Results reported in patent US20120329854.

Tests used:
[1] = molecular target: H3K4me1 peptide (H3 tail residues 1-20) (UniProt P68431)
[2] = molecular target: H3K4me2T6ph peptide (H3 tail residues 1-20) (UniProt P68431)
[3] = molecular target: H3K4me1T6ph peptide (H3 tail residues 1-20) (UniProt P68431)
[4] = molecular target: H3K4me2 peptide (H3 tail residues 1-20) (UniProt P68431)
[5] = molecular target: histone H3 in untreated nucleosomes purified from HeLa cells (UniProt P68431)
GST-H3 1-15 = GST-H3 1-15 (UniProt P68431)
[6] = molecular target: GST-H3 1-135 (full-length histone H3) (UniProt P68431)
GST-H3 16-30 = GST-H3 16-30 (UniProt P68431)
GST-H3 29-44 = GST-H3 29-44 (UniProt P68431)
GST-H3 1-135 T6A = GST-H3 1-135 T6A (UniProt P68431)
GST H3 1-15 T6A = GST H3 1-15 T6A (UniProt P68431)

For “bacterially expressed and purified His-LSD1”, the “demethylation assay, mass spectrometry” value [1] was “demethylation of H3K4me1 by LSD1”, the “demethylation assay, mass spectrometry” value [2] was “is completely blocked when the peptides are phosphorylated at T6” and the “demethylation assay, mass spectrometry” value [3] was “demethylation of H3K4me1 by LSD1 is completely abrogated in the presence of phosphorylated T6”. For the same substance, the “demethylation assay, mass spectrometry” value [4] was “The robust demethylation of H3K4me2 observed in the presence of LSD1”.

With “purified recombinant active PKCβI (ProQinase)” the “phosphorylation of nucleosomes at H3T6 (in vitro kinase assay, Western blot with α-H3T6ph)” value [5] was “only PKCα, 131 and 132 phosphorylate nucleosomes at H3T6”, the “phosphorylation in the presence of [γ-32P]ATP (autoradiography)” value (“phosphorylation in the presence” below) (GST-H3 1-15) was “only full-length histone H3 (H3 1-135) and a H3 fragment spanning amino acid residues 1 to 15 (H3 1-15), but not H3 16-30 or H3 29-44, are phosphorylated by PKCβI” and the “phosphorylation in the presence” value [6] was “only full-length histone H3 (H3 1-135) and a H3 fragment spanning amino acid residues 1 to 15 (H3 1-15), but not H3 16-30 or H3 29-44, are phosphorylated by PKCβI”. For the same substance, the “phosphorylation in the presence” value (GST-H3 16-30) was “but not H3 16-30 or H3 29-44, are phosphorylated by PKCβI”, the “phosphorylation in the presence” value (GST-H3 29-44) was “but not H3 16-30 or H3 29-44, are phosphorylated by PKCβI” and the “phosphorylation in the presence” value (GST-H3 1-135 T6A) was “mutation of threonine 6 to alanine in either H3 1-15 (H3 1-15 T6A) or in full length H3 (H3 1-135 T6A) abolishes phosphorylation”. The “phosphorylation in the presence” value (GST H3 1-15 T6A) was “mutation of threonine 6 to alanine in either H3 1-15 (H3 1-15 T6A) or in full length H3 (H3 1-135 T6A) abolishes phosphorylation”.

“purified recombinant active PKCδ (ProQinase)” was tested, and the “phosphorylation of nucleosomes at H3T6 (in vitro kinase assay, Western blot with α-H3T6ph)” value [5] was “only PKCα, 131 and 132 phosphorylate nucleosomes at H3T6 (PKCδ tested, no phosphorylation)”.
